Reference: patent US11643467 (dated 2023)

Legend:
Assay in all cases: ELISA
[1] = biological target: T1, FGFR1-Fc (human, UniProt P11362)
T1 chain: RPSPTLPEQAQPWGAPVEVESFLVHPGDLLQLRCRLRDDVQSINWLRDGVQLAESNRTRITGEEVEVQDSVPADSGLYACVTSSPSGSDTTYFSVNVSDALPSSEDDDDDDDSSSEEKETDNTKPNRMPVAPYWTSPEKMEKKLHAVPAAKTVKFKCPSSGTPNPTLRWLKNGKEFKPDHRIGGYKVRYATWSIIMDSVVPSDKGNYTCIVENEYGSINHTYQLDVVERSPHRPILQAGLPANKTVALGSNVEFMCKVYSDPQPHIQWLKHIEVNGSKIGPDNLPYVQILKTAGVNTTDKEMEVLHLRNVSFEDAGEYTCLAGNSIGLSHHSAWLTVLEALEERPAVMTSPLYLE

[2] = biological target: FGFR2-Fc (human, UniProt P21802)
[3] = biological target: T2, FGFR3-Fc (human, UniProt P22607)
T2 chain: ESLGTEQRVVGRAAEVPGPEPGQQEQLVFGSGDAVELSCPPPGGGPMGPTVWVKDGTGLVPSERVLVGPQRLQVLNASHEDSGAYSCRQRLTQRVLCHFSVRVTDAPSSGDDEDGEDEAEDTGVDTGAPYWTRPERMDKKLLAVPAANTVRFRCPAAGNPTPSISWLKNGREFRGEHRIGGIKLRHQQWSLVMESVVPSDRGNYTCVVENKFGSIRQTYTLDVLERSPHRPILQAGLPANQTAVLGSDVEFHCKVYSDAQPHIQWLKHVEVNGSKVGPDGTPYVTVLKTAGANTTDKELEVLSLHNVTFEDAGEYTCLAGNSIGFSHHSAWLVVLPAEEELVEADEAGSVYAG

Chain of FGFR2-Fc (P21802 22-377): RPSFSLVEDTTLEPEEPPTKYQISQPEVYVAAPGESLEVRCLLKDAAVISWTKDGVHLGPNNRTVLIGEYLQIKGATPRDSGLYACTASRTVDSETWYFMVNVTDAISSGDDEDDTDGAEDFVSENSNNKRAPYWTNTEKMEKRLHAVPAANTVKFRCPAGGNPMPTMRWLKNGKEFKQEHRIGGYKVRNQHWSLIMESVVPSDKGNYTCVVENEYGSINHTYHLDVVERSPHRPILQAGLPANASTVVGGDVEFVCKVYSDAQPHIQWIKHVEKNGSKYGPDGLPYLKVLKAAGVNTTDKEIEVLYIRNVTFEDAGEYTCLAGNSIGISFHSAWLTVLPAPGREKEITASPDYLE

- binding result [1]: no binding
- binding result [2]: no binding
- binding result [3]: no binding
B1: ch3B6 (antibody, V domains shown)
VH: EVQLVESGGGLVQPGRSLKLSCAASGFTFSNYYMAWVRQAPKKGLEWVATINPSGTRTYYPDSVKGRFTLSRDSAKSSLYLQMNSLKSEDTATFYCARLYNNYAFDYWGQGVMVTVSS
VL: DVQMTQSPALAVSPGERVSISCRASESVSTLMHWYQQKPGQQPKLLIYGTSNLESGVPARFSGSGSGTDFTLNIDPVEADDTATYFCQQSWNDPPTFGGGTKLELK
